In CN115197317A (ANYUAN PHARMACEUTICAL TECH SHANGHAI CO LTD, dated 2022):

B1: 人源化抗体hST-35-4 (antibody, V domains shown)
VH: EVQLVQSGAEVKKPGSSVKVSCKTSGYTFTTYTIHWIRQAPGQGLEWIGAVNPGNADTSYSQKFKGRATLTADKSSNTAYMELSSLRSEDTAVYYCARDAYPYFYALDSWGQGTTVTVSS
VL: DIQMTQSPSSLSASVGDRVTITCRAGQEISSYLTWLQQKPEGTIKRLIYAASTLDSGVPKRFSGSRSGSDYTLTISSLQPEDFATYYCLQYASYPWTFGGGTKVEIKR
B2: 人源化抗体hST-10-4 (antibody, V domains shown)
VH: EVTLKESGPALVKPTQTLTLTCTFSGFSLDSSNMGVSWIRQPPGKGLEWLAHIYWGDDNRYNPSLKSRLTVSKDTSKNQVVLTMTNMEPVDTATYYCARKWNWDWFPYWGQGTTVTVSS
VL: DIVLTQSPDSLAVSLGERATINCRASKSVSASGYSFMHWYQQKPGQPPKLLISLASNLESGVPARFSGSGSGTDFTLTISRLQAEDVAVYYCQHSRELPLTFGAGTKLEIKR
B3: 鼠源抗体ST-35-4 (antibody, V domains shown)
VH: QVQLQQPGAELVRPGASMKLSCKTSGYTFTTYTIHWIKQTPGQGLEWIGAVNPGNGDTSYSQKFKGRAILTADKSSNTASMQFSSLTSEDSAVYYCARDGYPYFYALDSWGQGTSVTVSS
VL: DIQMTQSPSSLSASLGERVSLTCRAGQEISSYLTWLQQKPDGTIKRLIYAASTLDSGVPKRFSGSRSGSDYSLTINSLESEDFADYYCLQYASYPWTFGGGTKVEIK
B4: 鼠源抗体ST-10-4 (antibody, V domains shown)
VH: QVTLKESGPGILQPSQTLTLTCSFSGFSLDSSNMGVSWIRQTSGKGLEWLAHIYWGDDNRYNPSLKSRLTVSKDTSSNQVFLKLTNVDTADTATYYCARKWNWDWFPYWGQGTLVTVSA
VL: DIVLTQSPTSLPVSLGQRATISCRASKSVSASGYSFMHWYQQKPGQPPKLLISLASNLESGVPARFSGSGSGTDFTLNIHPVEEEDAATYYCQHSRELPLTFGAGTKLELK

What was measured:
刺突S-鼠Fc融合蛋白 (S-mFc) = 刺突S-鼠Fc融合蛋白 (S-mFc) (SARS-CoV-2; mouse, UniProt P0DTC2 14-1213)
[1] = biological target: T1, SARS-CoV-2 S蛋白 (ACRO Biosystems, coated in ELISA 7.1) (SARS-CoV-2, UniProt P0DTC2 16-1213); experiment: indirect ELISA, S protein coated at 0.1 μg/mL
T1 construct: also called SARS-CoV S蛋白(ACRO Biosystems)

SARS-CoV-2 S蛋白(His标签) = SARS-CoV-2 S蛋白(His标签) (SARS-CoV-2, UniProt P0DTC2 16-1213); experiment: competition ELISA, S protein (His tag) coated, HRP-hACE2-Fc as competitor

Row | Binder | IC50 (刺突S-鼠Fc融合蛋白 (S-mFc)) | EC50 [1] | IC50 (SARS-CoV-2 S蛋白(His标签))
1 | B1 | 0.0163 µg/mL | 0.0018 µg/mL | 0.194 µg/mL
2 | B2 | 0.0123 µg/mL | 0.0023 µg/mL | 0.257 µg/mL
3 | B3 | 0.0118 µg/mL |  | 
4 | B4 | 0.0165 µg/mL |  | 
